Drawing on PMC4352251, “The VieB auxiliary protein negatively regulates the VieSA signal transduction system in Vibrio cholerae” (BMC Microbiology, 2015), this text covers Kd and stoichiometry N (VieB D62E monomer per VieS-C dimer) for 1 substance.

The test has as its target VieS-C (untagged cytoplasmic portion of the sensor kinase VieS) (UniProt O68317). Put plainly: composition-gradient MALS (CG-MALS).

As to “VieB D62E (His6 tag removed) (from UniProt O68319 1-553) (natural protein)”, the Kd was found to be 197 nM and the stoichiometry N (VieB D62E monomer per VieS-C dimer) is 1.

For orientation: Kd means the concentration at which binding is half-saturated. A high value points to weaker binding.
